According to US20220177547A1 (KYUNGPOOK NATIONAL UNIVERSITY INDUSTRY ACADEMIC COOPERATION …, published 2022):
Values belong to the binder of their own block, whether it stands above or below them.

Experiments:
[1] = target: T1, TRAIL receptor protein Dr5 (UniProt O14763 56-182, limits assumed); assay: SPR, Dr5 coupled to gold sensor chip
T1 construct: Purified protein amine-coupled (NHS-EDC) to the SPR chip; The construct is not described
Procedure: (§1) The TRAIL receptor protein Dr5 was coupled to a surface of a gold sensor chip by flowing it on the surface of the gold sensor chip for surface resonance plasma (SPR) activated with NHS-EDC, and blocked with ethanolamine. The binding kinetics were analyzed by flowing TRAIL-ATNC dissolved in TBS from 8.33 nM to 0.52 nM by half, and TRAIL from 400 nM to 25 nM by half on the TRAIL receptor-coupled gold sensor chip, respectively. The right channel, which was not coated with Dr5, was used as a control (or reference).
It was determined that TRAIL-ATNC bound to the TRAIL receptor faster than TRAIL, and formed a stable complex in which dissociation was delayed after binding.

[2] = target: T1, TRAIL receptor protein Dr5; assay: SPR, Dr5 coupled to gold sensor chip, TRAIL-ATNC flowed 8.33 nM to 0.52 nM
Procedure: as §1

[3] = target: T2, Interleukin 4 receptor (IL4R) protein (UniProt P24394 26-232, limits assumed); assay: SPR, IL4R coupled to gold sensor chip, TRAIL-ATNC^IL4rP flowed 41.67 nM to 0.65 nM
T2 construct: Purified protein amine-coupled (NHS-EDC) to the SPR chip; The construct is not described
T2 sequence (looked up): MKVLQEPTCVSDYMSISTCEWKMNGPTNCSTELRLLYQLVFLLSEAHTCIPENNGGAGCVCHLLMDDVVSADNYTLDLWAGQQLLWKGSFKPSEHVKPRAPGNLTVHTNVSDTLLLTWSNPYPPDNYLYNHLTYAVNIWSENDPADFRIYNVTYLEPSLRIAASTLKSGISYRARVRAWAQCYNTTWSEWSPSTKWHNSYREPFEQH
Procedure: Interleukin 4 receptor (IL4R) protein was coupled to the surface of a gold sensor chip for surface resonance plasma (SPR) activated with NHS-EDC, and TRAIL-ATNC^IL4rP dissolved in TBS was flowed from 41.67 nM to 0.65 nM in half on the IL4R-coupled gold sensor chip to analyze binding kinetics. The right channel, which was not coated with IL4R, was used as a reference.

fold higher kon than TRAIL alone [1]: ~10 fold
fold lower KD than TRAIL [1]: ~100 fold
fold lower koff than TRAIL alone [1]: ~10 fold
Kd [2]: 0.411 nM
koff [2]: 0.000217 s⁻¹
kon [2]: 529000 M⁻¹ s⁻¹
B1: TRAIL-ATNC (Active Trimer Nanocage) (other)
chain: MGSSHHHHHHSSGLVPRGSQHMVRERGPQRVAAHITGTRGRSNTLSSPNSKNEKALGRKINSWESSRSGHSFLSNLHLRNGELVIHEKGFYYIYSQTYFRFQEEIKENTKNDKQMVQYIYKYTSYPDPILLMKSARNSCWSKDAEYGLYSIYQGGIFELKENDRIFVSVTNEHLIDMDHEASFFGAFLVGGSGGGSGEFEALQGQVQHLQAAFSQYKKVELFPVDGGGGAEAAAKEAAAKTSDSEAAINRQINLELYASYVYLSMSYYFDRDDVALKNFAKYFLHQSHEEREHAEKLMKLQNQRGGRIFLQDIKKPDCDDWESGLNAMECALHLEKNVNQSLLELHKLATDKNDPHLCDFIETHYLNEQVKAIKELGDHVTNLRKMGAKL
notes: It was expressed from pET-28a and purified on Ni-NTA; also called TRAIL-attached nanocage

Kd [3]: 37.7 nM
B2: TRAIL-ATNC^IL4rP (other)
chain: MGSSHHHHHHSSGLVPRGSQHMVRERGPQRVAAHITGTRGRSNTLSSPNSKNEKALGRKINSWESSRSGHSFLSNLHLRNGELVIHEKGFYYIYSQTYFRFQEEIKENTKNDKQMVQYIYKYTSYPDPILLMKSARNSCWSKDAEYGLYSIYQGGIFELKENDRIFVSVTNEHLIDMDHEASFFGAFLVGGSGGGSGEFEALQGQVQHLQAAFSQYKKVELFPVDGGGGAEAAAKEAAAKTSDSEAAINRQINLELYASYVYLSMSYYFDRDDVALKNFAKYFLHQSHEEREHAEKLMKLQNQRGGRIFLQDIKKPDCDDWESGLNAMECALHLEKNVNQSLLELHKLATDKNDPHLCDFIETHYLNEQVKAIKELGDHVTNLRKMGAKLGGGSGGPLGLAGGGGSGCRKRLDRNC
notes: Ferritin nanocage of 24 fusion polypeptides; It was expressed from pET-28a and purified on Ni-NTA; also called TRAIL trimer fusion protein expressed on the cancer-targeting ferritin nanocage
